In PMC12147176, “Unstructured protein domains stabilize RNA binding and mediate RNA folding by AUF1” one finds binding result and Kd data, which are given here for 7 molecules.

The target of data set [1] is T1, His6-p37AUF1 W87F (human, UniProt Q14103-4 1-287, W87F). The data set is described as follows: Trp fluorescence and iodide quenching; 2 uM each; KSV 3.88 M-1; Anisotropy: 10 mM Tris-HCl pH 8.0, 100 mM KCl (50 mM for Fl-ARE2), 0.5 mM EDTA, 0.1 ug/ul acetylated BSA, 1 ug/ul heparin, 2 mM DTT, 25 C, RNA 0.2-0.4 nM; EMSA: same with 100 mM KCl, 10% glycerol, 1 nM RNA, on ice, UV crosslinked. The following applies: protein: recombinant; tags: N-term His6; chain copies: 2. Background: Mobility shift assays separate free from complexed probe on a gel.

Data set [2] concerns the target T2, His6-p37AUF1 wt (human, UniProt Q14103-4 1-287). Briefly: fluorescence anisotropy; Anisotropy: 10 mM Tris-HCl pH 8.0, 100 mM KCl (50 mM for Fl-ARE2), 0.5 mM EDTA, 0.1 ug/ul acetylated BSA, 1 ug/ul heparin, 2 mM DTT, 25 C, RNA 0.2-0.4 nM; EMSA: same with 100 mM KCl, 10% glycerol, 1 nM RNA, on ice, UV crosslinked. The conditions noted are these: protein: recombinant, chain copies: 2; for Kd: label: 3' fluorescein. A general note: In fluorescence polarisation assays a small probe gives low polarisation when free and higher when bound to something large.

In another data set the target is His6-p37AUF1(69-239) (human, UniProt Q14103-4 69-239). Described as above. The following applies: protein: recombinant; label: 3' fluorescein.
Data set [3] has as its target T3, His6-p37AUF1(1-239) (human, UniProt Q14103-4 1-239). The data set is described as above. The following applies: protein: recombinant; chain copies: 2; label: 3' fluorescein.
In data set [4] the target is T4, His6-p37AUF1(78-239) (human, UniProt Q14103-4 78-239). The data set is described as above. The conditions noted are these: protein: recombinant; for Kd: label: 3' fluorescein.
For a further data set, the target named is His6-p37AUF1(78-287) (human, UniProt Q14103-4 78-287). Described as above. The following applies: protein: recombinant; chain copies: 2; label: 3' fluorescein.
The next data set addresses His6-p37AUF1(69-287) (human, UniProt Q14103-4 69-287). The description is as above. The following applies: protein: recombinant; label: 3' fluorescein.
For data set [5], the target named is T2, His6-p37AUF1 wt. The data set is described as follows: EMSA (UV-crosslinked); Anisotropy: 10 mM Tris-HCl pH 8.0, 100 mM KCl (50 mM for Fl-ARE2), 0.5 mM EDTA, 0.1 ug/ul acetylated BSA, 1 ug/ul heparin, 2 mM DTT, 25 C, RNA 0.2-0.4 nM; EMSA: same with 100 mM KCl, 10% glycerol, 1 nM RNA, on ice, UV crosslinked. The following applies: protein: recombinant; chain copies: 2; label: biotin.

The target of data set [6] is T4, His6-p37AUF1(78-239). The data set is described as above. The following applies: protein: recombinant; label: biotin.
For data set [7], the target named is T2, His6-p37AUF1 wt. The data set is described as follows: fluorescence anisotropy; first site (Kd1), 50 mM KCl; Anisotropy: 10 mM Tris-HCl pH 8.0, 100 mM KCl (50 mM for Fl-ARE2), 0.5 mM EDTA, 0.1 ug/ul acetylated BSA, 1 ug/ul heparin, 2 mM DTT, 25 C, RNA 0.2-0.4 nM; EMSA: same with 100 mM KCl, 10% glycerol, 1 nM RNA, on ice, UV crosslinked. The following applies: protein: recombinant; chain copies: 2; label: 5' fluorescein.

Data set [8] deals with T3, His6-p37AUF1(1-239). Described as above. The conditions noted are these: protein: recombinant; chain copies: 2; label: 5' fluorescein.
In data set [9] the target is T4, His6-p37AUF1(78-239). Described as above. The following applies: protein: recombinant; label: 5' fluorescein.
A further data set has as its target His6-p37AUF1(30-287) (human, UniProt Q14103-4 30-287). Briefly: fluorescence anisotropy; Anisotropy: 10 mM Tris-HCl pH 8.0, 100 mM KCl (50 mM for Fl-ARE2), 0.5 mM EDTA, 0.1 ug/ul acetylated BSA, 1 ug/ul heparin, 2 mM DTT, 25 C, RNA 0.2-0.4 nM; EMSA: same with 100 mM KCl, 10% glycerol, 1 nM RNA, on ice, UV crosslinked. The conditions noted are these: protein: recombinant; chain copies: 2; label: 3' fluorescein.

In a further data set the target is His6-p37AUF1 W250F (human, UniProt Q14103-4 1-287, W250F). Described as above. The following applies: protein: recombinant; tags: N-term His6; chain copies: 2; label: 3' fluorescein.
The target in the next data set is His6-p37AUF1(Δ69-77) (human, UniProt Q14103-4 1-287, del69-77). Described as above. The following applies: protein: recombinant; chain copies: 2; label: 3' fluorescein.
In a further data set the target is p37AUF1 (EK-cleaved) (human, UniProt Q14103-4 1-287). Described as above. The following applies: protein: recombinant; tags: His6 removed by enterokinase; chain copies: 2; label: 3' fluorescein.
Data set [10] addresses T1, His6-p37AUF1 W87F. Briefly: Trp fluorescence and iodide quenching; 2 uM each; KSV 0.60 vs 6.59 M-1 without RNA; saturates near 1:1; Anisotropy: 10 mM Tris-HCl pH 8.0, 100 mM KCl (50 mM for Fl-ARE2), 0.5 mM EDTA, 0.1 ug/ul acetylated BSA, 1 ug/ul heparin, 2 mM DTT, 25 C, RNA 0.2-0.4 nM; EMSA: same with 100 mM KCl, 10% glycerol, 1 nM RNA, on ice, UV crosslinked. The following applies: protein: recombinant; tags: N-term His6; chain copies: 2.

One may read the Kd as a measure of binding affinity in units of concentration.

T4 sequence (Q14103 other isoform, or with tags, fused parts or gaps): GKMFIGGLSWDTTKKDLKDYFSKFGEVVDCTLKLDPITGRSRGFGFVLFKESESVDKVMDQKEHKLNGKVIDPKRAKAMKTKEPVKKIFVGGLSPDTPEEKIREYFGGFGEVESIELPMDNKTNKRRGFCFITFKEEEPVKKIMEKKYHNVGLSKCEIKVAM
T3 sequence (Q14103 other isoform, or with tags, fused parts or gaps): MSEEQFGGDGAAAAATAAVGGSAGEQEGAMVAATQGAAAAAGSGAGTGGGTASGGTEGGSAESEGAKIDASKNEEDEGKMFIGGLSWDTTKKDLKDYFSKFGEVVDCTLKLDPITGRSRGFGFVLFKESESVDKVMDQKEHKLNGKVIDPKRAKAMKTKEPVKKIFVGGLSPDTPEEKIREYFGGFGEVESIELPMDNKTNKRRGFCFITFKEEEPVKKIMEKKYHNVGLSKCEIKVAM
T2 sequence (Q14103 other isoform, or with tags, fused parts or gaps): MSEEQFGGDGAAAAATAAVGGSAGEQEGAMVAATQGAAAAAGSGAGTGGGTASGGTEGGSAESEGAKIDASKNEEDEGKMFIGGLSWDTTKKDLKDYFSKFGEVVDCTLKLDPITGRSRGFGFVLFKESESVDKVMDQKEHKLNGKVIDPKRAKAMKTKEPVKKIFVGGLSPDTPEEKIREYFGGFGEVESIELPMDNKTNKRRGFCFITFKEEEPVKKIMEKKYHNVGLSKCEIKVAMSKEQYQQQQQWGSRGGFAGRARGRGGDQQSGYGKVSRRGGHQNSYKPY
T1 sequence (Q14103 other isoform, or with tags, fused parts or gaps W87F | W87F W87F): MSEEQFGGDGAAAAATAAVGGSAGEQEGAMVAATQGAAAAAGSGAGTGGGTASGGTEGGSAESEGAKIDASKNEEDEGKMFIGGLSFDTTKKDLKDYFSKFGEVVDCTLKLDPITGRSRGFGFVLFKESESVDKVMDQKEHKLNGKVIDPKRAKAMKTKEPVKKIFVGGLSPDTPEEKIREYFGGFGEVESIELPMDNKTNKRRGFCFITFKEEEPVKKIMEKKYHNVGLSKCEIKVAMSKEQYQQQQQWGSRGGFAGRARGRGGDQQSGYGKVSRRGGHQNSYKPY
His6-p37AUF1(69-239), sequence (Q14103 other isoform, or with tags, fused parts or gaps): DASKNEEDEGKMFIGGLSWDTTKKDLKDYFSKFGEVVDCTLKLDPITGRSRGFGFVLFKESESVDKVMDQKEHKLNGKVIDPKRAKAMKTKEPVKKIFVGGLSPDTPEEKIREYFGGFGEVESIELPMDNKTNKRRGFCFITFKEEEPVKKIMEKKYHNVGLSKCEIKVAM
His6-p37AUF1(69-287), sequence (Q14103 other isoform, or with tags, fused parts or gaps): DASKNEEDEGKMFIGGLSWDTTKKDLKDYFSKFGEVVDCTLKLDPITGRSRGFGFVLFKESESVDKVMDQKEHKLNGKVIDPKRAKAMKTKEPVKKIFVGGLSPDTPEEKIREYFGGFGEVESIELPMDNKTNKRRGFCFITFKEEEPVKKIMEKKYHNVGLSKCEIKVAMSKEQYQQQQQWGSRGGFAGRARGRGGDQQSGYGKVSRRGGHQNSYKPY
His6-p37AUF1(30-287), sequence (Q14103 other isoform, or with tags, fused parts or gaps): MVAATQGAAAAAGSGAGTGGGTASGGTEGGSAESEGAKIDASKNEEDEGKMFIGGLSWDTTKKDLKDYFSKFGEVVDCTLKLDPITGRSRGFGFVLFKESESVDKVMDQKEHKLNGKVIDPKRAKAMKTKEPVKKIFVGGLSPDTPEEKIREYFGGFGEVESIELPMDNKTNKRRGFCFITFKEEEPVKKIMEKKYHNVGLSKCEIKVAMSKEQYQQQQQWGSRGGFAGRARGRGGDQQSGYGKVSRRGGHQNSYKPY
His6-p37AUF1 W250F, sequence (Q14103 other isoform, or with tags, fused parts or gaps W250F | W250F W250F): as the sequence (Q14103 other isoform, or with tags, fused parts or gaps W87F | W87F W87F) above, with F87W, W250F counted along it
His6-p37AUF1(Δ69-77), sequence (Q14103 other isoform, or with tags, fused parts or gaps del69-77 | mutant): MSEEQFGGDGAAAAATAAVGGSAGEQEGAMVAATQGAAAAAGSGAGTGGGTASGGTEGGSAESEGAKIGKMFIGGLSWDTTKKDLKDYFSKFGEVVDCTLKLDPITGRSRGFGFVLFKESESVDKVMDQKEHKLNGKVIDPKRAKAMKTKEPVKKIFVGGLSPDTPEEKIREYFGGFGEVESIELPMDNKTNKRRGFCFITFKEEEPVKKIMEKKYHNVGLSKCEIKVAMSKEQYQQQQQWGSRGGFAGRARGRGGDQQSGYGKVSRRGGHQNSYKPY
His6-p37AUF1(78-287), sequence (Q14103 other isoform, or with tags, fused parts or gaps): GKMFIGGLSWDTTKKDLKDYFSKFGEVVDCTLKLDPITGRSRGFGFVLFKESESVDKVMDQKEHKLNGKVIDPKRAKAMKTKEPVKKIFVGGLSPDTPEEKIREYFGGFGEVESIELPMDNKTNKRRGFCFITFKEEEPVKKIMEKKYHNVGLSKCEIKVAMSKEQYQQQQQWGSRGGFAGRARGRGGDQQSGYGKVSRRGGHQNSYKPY
p37AUF1 (EK-cleaved), sequence (Q14103 other isoform, or with tags, fused parts or gaps): as the sequence (Q14103 other isoform, or with tags, fused parts or gaps W87F | W87F W87F) above, with F87W counted along it

Turning to UUAUUUAUUUAUUUAG (ssRNA) [ARE15-G (unlabeled)], the binding result with His6-p37AUF1 W87F [1] was “binds”.

For UUAUUUAUUUAUUUAG (ssRNA) [ARE15-G-Fl], the Kd stood at 110 ± 5 nM with His6-p37AUF1 wt [2]; 933 ± 90 nM with His6-p37AUF1(69-239); 176 ± 9 nM in the data set with His6-p37AUF1(1-239) [3]; 796 ± 103 nM with His6-p37AUF1(78-239) [4]; 1090 ± 69 nM with His6-p37AUF1(78-287); 467 ± 33 nM with His6-p37AUF1(69-287).

On to UGGCCAAUGCCCUGGCUCACAAAUACCACUG (ssRNA) [Fl-Rβ], for which the binding result with His6-p37AUF1 wt [2] (label: 5' fluorescein) and with His6-p37AUF1(78-239) [4] (label: 5' fluorescein) was “no binding” in each case.

Take UGGCCAAUGCCCUGGCUCACAAAUACCACUG (ssRNA) [B-Rβ]: the binding result in the data set with His6-p37AUF1 wt [5] and in the data set with His6-p37AUF1(78-239) [6] was “no binding” each time.

Turning to GUGAUUAUUUAUUAUUUAUUUAUUAUUUAUUUAUUUAG (ssRNA) [Fl-ARE2], the Kd turned out to be 16 ± 3 nM with His6-p37AUF1 wt [7], 156 ± 7 nM with His6-p37AUF1(1-239) [8] and 853 ± 48 nM with His6-p37AUF1(78-239) [9].

In the case of CCCCUGGCUCACAAAUACCUUAUUUAUUUAUUUAG (ssRNA) [ARE1-Fl], the Kd with His6-p37AUF1(30-287) came out at 27 ± 1.4 nM; with His6-p37AUF1 W250F it was 22 ± 2 nM; with His6-p37AUF1 wt [2], 19 ± 3 nM; in the data set with His6-p37AUF1(69-239) it was 527 ± 54 nM; with His6-p37AUF1(Δ69-77), 89 ± 11 nM; with His6-p37AUF1(1-239) [3], 101 ± 8 nM. Further, the dissociation constant Kd was determined as 505 ± 34 nM with His6-p37AUF1(78-239) [4] and 15 ± 2 nM with p37AUF1 (EK-cleaved).

CCCCUGGCUCACAAAUACCUUAUUUAUUUAUUUAG (ssRNA) [ARE1 (unlabeled)]: the binding result with His6-p37AUF1 W87F [10] is “binds”.
